The source of these data is the nanobody polyreactivity screen of Harvey et al. (2022).

The data set is described as follows: yeast display, Sf9 membrane polyspecificity reagent, FACS + sequencing; frameworks hold sequencing errors. In outline: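 Galactose induction of a Saccharomyces cerevisiae BJ5465 synthetic nanobody display library ran 36–48 hours. The cells were then stained for 1 hour at 4 °C with 10% biotinylated, detergent-solubilized Sf9 membrane reagent, pulled down on streptavidin microbeads and FACS-sorted into low and high (top ~1%) gates on expression and reagent-binding fluorescence. Labels for polyreactivity follow the gate of origin.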
Regarding “QVQLVESGGGLVQAGGSLRLSCAASGFTFSSNAMGSYRQAPGKERELVAAISFNSTSTYYADSVKVRFTISRDNAKNTVYLQMNSLKPEDTAVYYCAADVPRVQSEPEYDYSGQGTQVTVSS”, the “polyreactivity (PSR sort gate)” value was “low polyreactivity”.

With “QVQLVESGGGLVQAGGSLRLSCAASGRTFAINTMGWYRPAPGKEREFVASITRRGGSTYYADSVKWRFTISRDNAKNTVYLQMNSLKREDNAVYYCNAELRWRLPARAAYYYWGQGTQVTFSS”, the “polyreactivity (PSR sort gate)” value is “high polyreactivity”.

As for “QVQLVESGGGLVQAGGSLRLSCAASGFIFRYYARGWYRQAPGKERELVAAISSTGGSTSYADSVKGRFTISRDNAKNTVYLQLNSQKPEDTAVYDCAADYWIRRRTYGQLYRPYYYWGQGTQVTVSS”, the “polyreactivity (PSR sort gate)” value was “high polyreactivity”.

In the case of “QVQLVESGGGLVHAGGSLRLSCAASGFTIERYAMGWYRQAAGKERELVAVISTSGGSTYYADSVNWRYTITRDNAKNSVYLQMNSLKPEDTAVYYCAKDGSSRGDYHFGWGYYYWGQGTQVTVSS”, the “polyreactivity (PSR sort gate)” value was “low polyreactivity”.

On to “QVQLVESGGGLVQAGGSLRLRCADSGSTFYDNAMGWYRQATGKVRELVATISDSGGRTYYADSVKGRFTISRDNAKNTVYLQMNSLKPEDTAVYYCAADNYYITTVTDMYYWGQGTQVTVSS”, for which the “polyreactivity (PSR sort gate)” value is reported as “low polyreactivity”.

As for “QVQLVESGGGLVQAGGRLRLSCAASGSTFILNAMGWYRQAPGKERELVAAISRSGGNTYYADSVKRRFTISRDNAKNTVYLQMNSLKPADTAVYYCAATRRSHYYYWGQGTQVTVSS”, the “polyreactivity (PSR sort gate)” value was “high polyreactivity”.

Take “QVQLVESGGGLVQAGGSLRLSCAASGRTFIGYAMAWYRQAPGKEWELVAAISARGGRTYYADSVKGRFTISRDNAKNTVYLQMNSLKPEETAVYYCAAVRVKHSGYDYWGQGTQVTVSS”: the “polyreactivity (PSR sort gate)” value is “high polyreactivity”.

With “QVQLQESGGVLMQAGGNLRLSFPASGYISTHYDMDWYRQAPGKERELVARIDDGAITNYADSVKGRFTISRDNAKNTVYLQMNSLKPEDTAVYYCAVYYGDDYYHDYWGQGTQVTVSS”, the “polyreactivity (PSR sort gate)” value is recorded as “low polyreactivity”.

As for “QVQLVESGGGLVQAGGSLRLSCAASGTFTVNTMGWYRQAPGKVRELVAAISTGDTTTYADSVKGRFTISRDNAKNTVYLQMNSLKPEDTAVYYCIVDIGVYAYESDYWGQGTQVTVSS”, the “polyreactivity (PSR sort gate)” value is given as “low polyreactivity”.

In the case of “QVQLVESGGGLVQAGGSHRLSCAASGSTFEIYAMGWYRQAPGKERELVAAISSGGSTNYADSVKGRFTISRDNAKNSVYLQMNSLKPEDTAVYYCVYAIQFDYWGQGTQVTVSS”, the “polyreactivity (PSR sort gate)” value was “low polyreactivity”.

Take “QDQLLESGAGLVQAGGSLRLSCAASGRIFDYNVMGWYRQAPGKERELVADITSSGGSTYYADSVKGRFTISRDNAKNTVYLQMNSLKPEDTAVYYCYISYFTIYDDFYYWGQGTQVTVSS”: the “polyreactivity (PSR sort gate)” value is listed as “low polyreactivity”.

As for “QVQLVETGGGLFQAGGSLRLSCAPSGFTFRYNAMGWYRQAPGKERELVAAISWSGGSTYYADSVKGRFTISRDNAKNTVYLQMNSLKPEDTAVYYSNAEYDDYAGEFDYWGQGTQVTGSS”, the “polyreactivity (PSR sort gate)” value is “low polyreactivity”.

For the sequence “QVQLVESGGGLVQAGGSLRLSCAASGSTSYFNVKGWYRQAPGKERELVAAISWSGGSTYADSVKGRFTISRDNAKNTVYLQMNSLKREDTAVYYCNKDYGYVQLRFYGPGYYWGQGTQVTVSS”, the “polyreactivity (PSR sort gate)” value was “low polyreactivity”.

Consider “QVHLVESGGGLVQAGGSLRLSCAASGFIFWENGMGWYRQAPGKERELVAAISSGGGRTYYADSVKGLFTISRDNAKNTVYLQMNSLKPEDTAFYYCNRARYYREFDYWGQGTQVTVSS”, for which the “polyreactivity (PSR sort gate)” value is recorded as “high polyreactivity”.

On to “QVQLVESGGGFVQAGGSLRLSCAASGRIFYGYAMGWYRQAPGKERELVAAISSGGITYYADSVKGRFTISRDNAKNTVYLQMNSLKPEDTAVYYCAADWAYYVASYLYYTFDYWGQGTQVTVSS”, for which the “polyreactivity (PSR sort gate)” value is recorded as “low polyreactivity”.

Consider “QVQLVESGGGLVQAGGSLRLSCAASGRTFGRYAMGWYRQAPGKERELVAAINRGGSTKYADSVKGRFTISRDNAKNTVYLQMNSLKPEDTAVYYCAKDRHPALHYDYWGQGTQVTVSS”, for which the “polyreactivity (PSR sort gate)” value is listed as “low polyreactivity”.
